# Laboratory results as given in patent publication US20220289837A1, “Cystic Fibrosis Transmembrane Conductance Regulator Stabilizing Agents” (VIB VZW, priority 2019, published 2022).
# B1: T27: NBD1-specific CFTR-stabilizing nanobody, SEQ ID NO:4, binds epitope 1 (protein)
# VHH: QVQLQESGGGLEQPGGSLRLSCATSGVIFGINAMGWYRQAPGKQRELVATFTSGGSTNYADFVEGRFTISRDNAKNTVYLQMNGLRPEDTAVYYCHATVVVSRYGLTYDYWGQGTQVTVSS
# modifications: T27 Nanobody amino acid sequence
# B2: T2a: NBD1-specific CFTR-stabilizing nanobody, SEQ ID NO:3, binds epitope 1 (protein)
# VHH: QVQLQESGGGLVQAGGSLRLSCAASGSIFRIDAMGWYRQAPGKQRELVAHSTSGGSTDYADSVKGRFTISRDNAKNTVYLQMNSLKPEDTAVYYCNADVRTRWYASNNYWGQGTQVTVSS
# modifications: T2a Nanobody amino acid sequence
# B3: T8: nanobody, SEQ ID NO:7, binds epitope 2 including F508, stabilizes WT CFTR but not F508del (protein)
# VHH: QVQLQESGGGLVQPGGSLRLSCAASGSTSSINAMGWYRQAPGKQREPVAISSSGGDTRYAEPVKGRFTISRDNAQNKVYLQMNSLKPEDTAVYYCWLNWGRTSVNSWGQGTQVTVSS
# modifications: T8 Nanobody amino acid sequence
# B4: G3a: non-stabilizing nanobody, SEQ ID NO:50, recognizes the structurally diverse region of NBD1 (protein)
# VHH: QVQLQESGGGLVQAGGSLRLSCTASGRAFSWYVMGWFRQAPGKEREFVATVSGNGSRRDYADSVKGRFTISRDNAKNTVYLQMNSLKPEDTAVYYCAASSTYYYTDPEKYDYWGQGTQVTVSS
# modifications: G3a Nanobody
# B5: D12: NBD1-specific CFTR-stabilizing nanobody, SEQ ID NO:2, binds epitope 1 (protein)
# VHH: QVQLQESGGGLVQAGSSLRLACAATGSIRSINNMGWYRQAPGKQRGMVAIITRVGNTDYADSVKGRFTISRDNAKNTVYLQMNSLKPEDTATYYCHAEITEQSRPFYLTDDYWGQGTQVTVSS
# modifications: D12 Nanobody amino acid sequence
# Molecular target: T1, wt-CFTR (Homo sapiens, UniProt P13569)
# T1 sequence (P13569 whole entry): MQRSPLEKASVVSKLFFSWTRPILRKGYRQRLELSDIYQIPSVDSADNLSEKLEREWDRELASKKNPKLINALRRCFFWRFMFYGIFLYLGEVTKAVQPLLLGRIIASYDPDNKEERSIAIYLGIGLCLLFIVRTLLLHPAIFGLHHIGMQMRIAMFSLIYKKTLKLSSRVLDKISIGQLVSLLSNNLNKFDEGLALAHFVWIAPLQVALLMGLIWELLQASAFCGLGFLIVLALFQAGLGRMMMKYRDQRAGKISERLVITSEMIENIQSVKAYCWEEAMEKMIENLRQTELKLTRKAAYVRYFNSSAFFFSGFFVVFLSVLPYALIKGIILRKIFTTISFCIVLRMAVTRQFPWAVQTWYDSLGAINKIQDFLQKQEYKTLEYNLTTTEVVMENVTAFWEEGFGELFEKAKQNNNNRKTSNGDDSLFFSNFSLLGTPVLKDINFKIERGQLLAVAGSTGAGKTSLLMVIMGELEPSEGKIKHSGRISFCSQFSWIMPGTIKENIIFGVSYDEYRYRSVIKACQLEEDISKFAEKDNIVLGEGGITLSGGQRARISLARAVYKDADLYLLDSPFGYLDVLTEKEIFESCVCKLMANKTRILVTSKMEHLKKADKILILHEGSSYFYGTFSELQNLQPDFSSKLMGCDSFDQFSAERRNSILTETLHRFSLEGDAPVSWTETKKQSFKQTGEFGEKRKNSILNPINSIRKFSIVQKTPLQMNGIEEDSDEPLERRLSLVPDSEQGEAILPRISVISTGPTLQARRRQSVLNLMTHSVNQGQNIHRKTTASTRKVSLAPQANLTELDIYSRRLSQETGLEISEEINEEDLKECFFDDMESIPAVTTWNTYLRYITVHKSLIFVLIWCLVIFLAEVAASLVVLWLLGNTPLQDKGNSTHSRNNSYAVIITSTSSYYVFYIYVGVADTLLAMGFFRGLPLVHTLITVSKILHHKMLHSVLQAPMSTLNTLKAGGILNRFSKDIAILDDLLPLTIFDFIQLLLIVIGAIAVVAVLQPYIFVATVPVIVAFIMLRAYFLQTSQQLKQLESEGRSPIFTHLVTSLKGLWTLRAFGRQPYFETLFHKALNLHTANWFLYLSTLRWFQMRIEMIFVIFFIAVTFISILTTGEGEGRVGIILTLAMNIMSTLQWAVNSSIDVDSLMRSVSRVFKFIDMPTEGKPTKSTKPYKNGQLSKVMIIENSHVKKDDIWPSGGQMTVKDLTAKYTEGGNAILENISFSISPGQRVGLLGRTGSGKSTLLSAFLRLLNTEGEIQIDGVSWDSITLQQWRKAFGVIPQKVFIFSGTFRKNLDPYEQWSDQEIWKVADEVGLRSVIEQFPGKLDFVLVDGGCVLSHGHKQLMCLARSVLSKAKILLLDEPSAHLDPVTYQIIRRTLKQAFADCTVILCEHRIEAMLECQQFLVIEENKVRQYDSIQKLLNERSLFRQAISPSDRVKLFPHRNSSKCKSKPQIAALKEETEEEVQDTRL
# Experiment: ATPase activity of wt-CFTR
# Type: biochemical
# Set-up: His10-SUMO* (N); FLAG; EGFP (C); made in house; host or cells: HEK 293 cell line D165
# Details: saturating concentration of nanobody
# Protocol: To determine effect of nanobodies on functional stability, aliquots of purified wt-CFTR (25 nM) were preincubated 1 h on ice with 1 μM nanobody (or 15 μM, in the case of G3a). Substrate α-[32P]-ATP (2 μl) was then added for measurement of ATPase activity as previously described^[48]. Then, nanobody protection against thermal denaturation was determined after a 30 min thermal challenge of the protein complexes followed by an assay of residual ATPase.
row,Molecule,ATPase activity
1,B1,30 % of PKA-phosphorylated CFTR
2,B2,50 % of PKA-phosphorylated CFTR
3,B3,60 % of PKA-phosphorylated CFTR
4,B4,did not affect
5,B5,50 % of PKA-phosphorylated CFTR

# Molecular target: T2, F508del-2PT-NBD1 (Homo sapiens, UniProt P13569, A534P/DEL508-508/I539T/S492P/V470M)
# T2 construct: His6-SUMO (N, cleaved yes); made in house; host or cells: Escherichia coli BL21(DE3) pLysS
# T2 sequence (P13569 with tags, fused parts or gaps V470M/S492P/DEL508-508/A534P/I539T limits assumed): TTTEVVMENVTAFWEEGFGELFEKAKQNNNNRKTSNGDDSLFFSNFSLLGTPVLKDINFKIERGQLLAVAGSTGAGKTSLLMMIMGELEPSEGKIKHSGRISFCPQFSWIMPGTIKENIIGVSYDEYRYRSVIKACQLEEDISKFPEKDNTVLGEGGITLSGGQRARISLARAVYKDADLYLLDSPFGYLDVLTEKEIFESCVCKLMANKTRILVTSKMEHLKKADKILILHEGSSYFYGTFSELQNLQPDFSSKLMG
# Experiment: NBD1 ELISA dose-response, nanobody binding to immobilized F508del-2PT-NBD1
# Details: F508del-2PT-NBD1 versus 2PT-NBD1
# Protocol: For dose-response assays, Nunc MaxiSorp 96-well plates (ThermoScientific), were coated with 5 μg/ml NeutrAvidin Biotin-Binding protein (ThermoScientific) overnight at 4° C. and blocked 2 h at room temperature (RT) with 2% milk in phosphate-buffered saline (PBS). Each new reagent addition was preceded by three washes with 200 μl of NBD1 buffer (20 mM HEPES pH 7.5, 150 mM NaCl, and 10% (w/v) glycerol, 10% (w/v) ethylene glycol, 2 mM ATP, 3 mM MgCl2). Then, biotinylated purified NBD1 proteins at 5 μg/ml were immobilized 30 min at RT followed by 1 h RT incubation with 100 μl various concentrations (0-20 μg/ml) of purified nanobodies. Signal detection was followed using His-tag specific antibody (Invitrogen, catalogue number: MA1-135, 1:3000 dilution) to detect the nanobodies and secondary antibody anti-mouse coupled to horse radish peroxidase (HRP) (Millipore, catalogue number: AP308P, 1:5000 dilution). 50 μl of 1-Step UltraTMB-ELISA (ThermoScientific) was used as a substrate for the peroxidase and intensity of the reaction was proportional to absorbance measured at 450 nm with SynergyMx (BioTek) after addition of 50 μl H2SO4 at 1M.
# Affinity constants (KD) and thermodynamic parameters from ITC experiments were determined using one-site binding model with MicroCal Origin 7.0 software (Origin Lab Corp.). Dose response ELISA curves of each Nb binding to either isolated NBD1 or purified FL-CFTR were fitted using the sigmoidal dose-response equation from GraphPad Prism 3. DSC data were analyzed with the MicroCal Origin 7.0 software (Origin Lab Corp.), from which the unfolding temperature (Tm) was obtained.
row,Molecule,effect of F508del mutation on binding
1,B1,not affected
2,B2,not affected
3,B3,drastically affected
4,B5,not affected

# Same assay, conditions: immobilized F508del-2PT-NBD1
row,Molecule,EC50 of binding to F508del-2PT-NBD1
1,B4,weaker binding potency

# Molecular target: T1, wt-CFTR
# Experiment: CFTR pull-down from solubilized BHK-21 cells with immunoblot
# Type: binding
# Set-up: expressed in transfected cells
# Details: immunoblot with mAb 596
# Protocol: Human wt-CFTR was extracted from BHK-21 cells pellet by solubilization with 1% DMNG in PBS with proteases inhibitors for 1 h at 4° C. The cells debris were removed by centrifugation (16,000×g for 30 min at 4° C.). Supernatant was diluted 10 times in PBS with proteases inhibitors plus 10 mM imidazole and incubated at least for 30 min on HisPur Ni-NTA Resin (Thermo Scientific) pre-loaded with nanobodies. Resin was washed with 40 column volumes of PBS with 300 mM NaCl. Nanobodies were eluted with 200 mM imidazole in PBS. Presence of CFTR in each sample was detected by SDS-PAGE and immuno-blotting.
# Cell extracts were separated by SDS-PAGE on 7.5% polyacrylamide gel and transferred to nitrocellulose membrane (Bio-Rad) for immunodetection. After blocking for 1 h with 5% bovine serum albumin (BSA) in Tris-buffered saline added 0.05% Tween-20 (TBST), CFTR was detected using monoclonal antibody mAb 596, IgG2b (CFTR Antibody Distribution Program, dilution 1:46) for 1 h in blocking buffer. Blot was washed 3 times 5 min and incubated with anti-mouse-HRP antibody (Millipore, catalogue number: AP308P, 0.2 μg/ml) for 1 h in TBST. Membrane was washed 3 times for 5 min. CFTR was visualized by chemiluminescence using Luminata Forte Western HRP Substrate (Millipore) and detected with ImageQuant 400 (GE Healthcare).
row,Molecule,"pull-down of cellular CFTR, electrophoresis pattern (mature band C)"
1,B1,also observed
2,B2,identical electrophoresis pattern as observed in whole cell lysate
3,B3,identical electrophoresis pattern as observed in whole cell lysate
4,B4,identical electrophoresis pattern as observed in whole cell lysate
5,B5,also observed

# Molecular target: T1, wt-CFTR
# Experiment: Flow cytometry on permeabilized BHK-21 cells overexpressing wt-CFTR
# Type: cell-based
# Set-up: expressed in transfected cells
# Details: compared to negative control nanobody
# Protocol: (§1) Parental BHK-21 cells (ATCC; CCL-10) and cells stably overexpressing human wt-CFTR^[43,44,47] or 2PT-F508del-CFTR, as described above, were permeabilized with 0.01% n-Dodecyl-β-D-Maltopyranoside β-DDM—Inalco) at least for 2 h on ice. In the meantime, cells were incubated with 50 μg/ml nanobodies and DRAQ7 (0.3 μM—Biostatus) to monitor the permeabilization state. Nanobody binding was detected by using His-tag specific antibody (Invitrogen, catalogue number MA1-135, 1 μg/ml) or Myc-tag specific antibody (Invitrogen, catalogue number 13-2500, 2 μg/ml) and then anti-mouse-Alexa Fluor 488 (Invitrogen, catalogue number A11001, 1.3 μg/ml) at least for 30 min on ice. Cells were washed one time between each step by centrifugation (200×g for 5 min at 4° C.). All incubations (100 μl) and washes (1.5 ml) were performed in PBS with 6% fetal bovine serum (FBS) and 0.01%13-DDM on ice. Cells fluorescence was measured with Gallios Flow Cytometer (Beckman Coulter). Data were analyzed with Kaluza software.
row,Molecule,labelling of BHK-21 cells overexpressing wt-CFTR
1,B1,increased labelling
2,B2,increased labelling
3,B3,increased labelling
4,B4,increased labelling
5,B5,increased labelling

# Molecular target: T3, 2PT-F508del-CFTR (Homo sapiens, UniProt P13569, A534P/DEL508-508/I539T/S492P)
# T3 construct: expressed in transfected cells
# T3 sequence (P13569 with tags, fused parts or gaps S492P/DEL508-508/A534P/I539T): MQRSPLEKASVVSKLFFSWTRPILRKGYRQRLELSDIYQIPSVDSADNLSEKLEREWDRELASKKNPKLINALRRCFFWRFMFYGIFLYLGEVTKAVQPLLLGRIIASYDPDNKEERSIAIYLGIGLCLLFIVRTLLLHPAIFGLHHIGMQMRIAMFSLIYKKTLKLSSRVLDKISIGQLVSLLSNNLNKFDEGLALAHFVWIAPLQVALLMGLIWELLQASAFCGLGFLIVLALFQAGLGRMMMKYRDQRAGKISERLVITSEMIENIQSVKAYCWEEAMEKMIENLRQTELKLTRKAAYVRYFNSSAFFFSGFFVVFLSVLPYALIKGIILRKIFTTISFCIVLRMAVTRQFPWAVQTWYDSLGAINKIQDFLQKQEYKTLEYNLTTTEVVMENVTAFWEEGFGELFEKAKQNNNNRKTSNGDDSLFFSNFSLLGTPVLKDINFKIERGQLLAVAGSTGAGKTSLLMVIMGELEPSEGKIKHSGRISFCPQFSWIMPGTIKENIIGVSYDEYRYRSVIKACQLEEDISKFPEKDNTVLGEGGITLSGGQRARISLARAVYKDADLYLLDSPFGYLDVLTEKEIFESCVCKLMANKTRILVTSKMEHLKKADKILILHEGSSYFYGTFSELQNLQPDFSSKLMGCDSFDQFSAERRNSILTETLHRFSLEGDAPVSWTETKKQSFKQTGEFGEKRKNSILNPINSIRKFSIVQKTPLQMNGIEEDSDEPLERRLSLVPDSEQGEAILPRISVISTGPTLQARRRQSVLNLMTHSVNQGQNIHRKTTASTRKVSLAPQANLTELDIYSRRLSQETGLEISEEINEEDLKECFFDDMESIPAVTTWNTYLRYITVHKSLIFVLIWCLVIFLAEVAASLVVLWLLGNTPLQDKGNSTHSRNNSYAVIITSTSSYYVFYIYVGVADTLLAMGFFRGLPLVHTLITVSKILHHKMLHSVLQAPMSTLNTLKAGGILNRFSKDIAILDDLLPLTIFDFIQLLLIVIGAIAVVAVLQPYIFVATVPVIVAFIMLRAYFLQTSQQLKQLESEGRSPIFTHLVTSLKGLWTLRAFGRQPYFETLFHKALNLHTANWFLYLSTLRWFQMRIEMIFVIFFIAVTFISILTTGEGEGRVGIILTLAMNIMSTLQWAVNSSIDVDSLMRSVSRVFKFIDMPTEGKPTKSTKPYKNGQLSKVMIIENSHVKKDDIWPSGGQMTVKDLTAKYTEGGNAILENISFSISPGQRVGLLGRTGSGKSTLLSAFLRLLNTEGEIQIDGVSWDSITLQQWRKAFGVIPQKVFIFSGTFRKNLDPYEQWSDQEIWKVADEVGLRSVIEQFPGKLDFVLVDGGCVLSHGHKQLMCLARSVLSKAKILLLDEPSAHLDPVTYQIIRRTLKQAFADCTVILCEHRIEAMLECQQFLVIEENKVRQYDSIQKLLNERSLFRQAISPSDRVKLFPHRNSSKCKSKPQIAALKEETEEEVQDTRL
# Experiment: Flow cytometry on BHK-21 cells expressing 2PT-F508del-CFTR
# Type: cell-based
# Details: not given
# Protocol: as §1
row,Molecule,binding to 2PT-F508del expressing cells
1,B2,bind efficiently
2,B3,not able to bind
3,B4,bind efficiently
